# B1: Bordetella bacteriophage major tropism determinant variant Mtd-P1 (natural protein)
# chain: MSTAVQFRGGTTAQHATFTGAAREITVDTDKNTVVVHDGATAGGFPLARHDLVKTAFIKADKSAVAFTRTGNATASIKAGTIVEVNGKLVQFTADTAITMPALTAGTDYAIYVCDDGTVRADSNFSAPTGYTSTTARKVGGFHYAPGSNAAAQAGGNTTAQINEYSLWDIKFRPAALDPRGMTLVAGAFWADIYLLGVNHLTDGTSKYNVTIADGSASPKKSTKFGGDGSAAYSDGAWYNFAEVMTHHGKRLPNYNEFQALAFGTTEATSSGGTDVPTTGVNGTGATSAWNIFTSKWGVVQASGCLWTWGNEFGGVNGASEYTANTGGRGSVYAQPAAALFGGAWNGTSLSGSRAALWYSGPSFSFAFFGARGVCDHLILE
# notes: Major tropism determinant (Mtd), variant P1, expressed by Bordetella bacteriophage BPP-1; Mtd has 381 residues in total; trimer of 120 kDa
# B2: BPP-1 phage displaying Mtd-P1 (other)
# chain: MSTAVQFRGGTTAQHATFTGAAREITVDTDKNTVVVHDGATAGGFPLARHDLVKTAFIKADKSAVAFTRTGNATASIKAGTIVEVNGKLVQFTADTAITMPALTAGTDYAIYVCDDGTVRADSNFSAPTGYTSTTARKVGGFHYAPGSNAAAQAGGNTTAQINEYSLWDIKFRPAALDPRGMTLVAGAFWADIYLLGVNHLTDGTSKYNVTIADGSASPKKSTKFGGDGSAAYSDGAWYNFAEVMTHHGKRLPNYNEFQALAFGTTEATSSGGTDVPTTGVNGTGATSAWNIFTSKWGVVQASGCLWTWGNEFGGVNGASEYTANTGGRGSVYAQPAAALFGGAWNGTSLSGSRAALWYSGPSFSFAFFGARGVCDHLILE
# notes: Major tropism determinant (Mtd), variant P1, at the ends of the tail fibers of whole BPP-1 phage; 381 residues; Whole phage particle; The other phage proteins are not written; also called BPP-1(Δbrt); source: phage harvested from B. bronchiseptica RB50 cultures, concentrated by centrifugation and ultrafiltration
# How the values were obtained:
# [1] = target: T1, Biotinylated Prn-E (pertactin residues 38-640 with N-terminal biotinylation sequence) (B. bronchiseptica, UniProt Q03035 38-640, biotin (in vivo biotinylation of the N-terminal biotinylation sequence)); experiment: SPR; Biacore 3000, 25 °C; ~100 RU biotinylated Prn-E on a streptavidin chip; Mtd proteins injected in 150 mM NaCl, 50 mM Tris pH 8.0, 0.005% Tween 20 at 30 μl/min; single-site model, global fit, six concentrations, duplicate; conditions: both partners purified
# T1 construct: Pertactin of B. bronchiseptica, ectodomain residues 38-640; also called immobilized pertactin
# T1 sequence: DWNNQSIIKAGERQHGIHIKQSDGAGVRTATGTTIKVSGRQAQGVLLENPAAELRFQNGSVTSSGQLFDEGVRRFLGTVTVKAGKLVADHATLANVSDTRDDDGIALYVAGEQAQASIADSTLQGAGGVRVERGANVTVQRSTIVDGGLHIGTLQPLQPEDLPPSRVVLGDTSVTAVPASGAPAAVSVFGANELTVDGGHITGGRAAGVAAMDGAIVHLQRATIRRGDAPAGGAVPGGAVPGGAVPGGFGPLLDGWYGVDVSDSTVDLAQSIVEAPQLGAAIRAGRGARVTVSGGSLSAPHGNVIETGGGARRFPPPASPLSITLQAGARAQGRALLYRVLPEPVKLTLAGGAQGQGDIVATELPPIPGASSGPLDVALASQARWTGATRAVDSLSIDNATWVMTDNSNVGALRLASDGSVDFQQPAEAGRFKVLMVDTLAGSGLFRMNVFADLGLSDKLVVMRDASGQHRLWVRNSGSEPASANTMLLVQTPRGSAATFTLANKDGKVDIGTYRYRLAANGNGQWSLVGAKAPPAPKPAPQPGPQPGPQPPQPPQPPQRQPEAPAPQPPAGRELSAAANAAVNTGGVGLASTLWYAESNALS
# [2] = target: T2, His-tagged ectodomain of B. bronchiseptica pertactin (Prn-E; residues 38-640) (B. bronchiseptica, UniProt Q03035 38-640); experiment: crystal structure; Mtd-P1·Prn-E complex formed with ~1.6-fold molar excess of Mtd-P1 trimers over His-tagged Prn-E, isolated by Ni2+-chelation and Superdex 200; crystals at 25 °C in 2 M NaCl, 100 mM Tris pH 8.5, 200 mM Li2SO4; 3.16 Å; conditions: both partners purified
# T2 construct: Pertactin of B. bronchiseptica, 60 kDa ectodomain, residues 38-640 of the 93 kDa precursor; the loop deletion mutants carry an N-terminal His tag from pET28b; also called wild-type Prn-E; His-tagged Prn-E
# T2 sequence: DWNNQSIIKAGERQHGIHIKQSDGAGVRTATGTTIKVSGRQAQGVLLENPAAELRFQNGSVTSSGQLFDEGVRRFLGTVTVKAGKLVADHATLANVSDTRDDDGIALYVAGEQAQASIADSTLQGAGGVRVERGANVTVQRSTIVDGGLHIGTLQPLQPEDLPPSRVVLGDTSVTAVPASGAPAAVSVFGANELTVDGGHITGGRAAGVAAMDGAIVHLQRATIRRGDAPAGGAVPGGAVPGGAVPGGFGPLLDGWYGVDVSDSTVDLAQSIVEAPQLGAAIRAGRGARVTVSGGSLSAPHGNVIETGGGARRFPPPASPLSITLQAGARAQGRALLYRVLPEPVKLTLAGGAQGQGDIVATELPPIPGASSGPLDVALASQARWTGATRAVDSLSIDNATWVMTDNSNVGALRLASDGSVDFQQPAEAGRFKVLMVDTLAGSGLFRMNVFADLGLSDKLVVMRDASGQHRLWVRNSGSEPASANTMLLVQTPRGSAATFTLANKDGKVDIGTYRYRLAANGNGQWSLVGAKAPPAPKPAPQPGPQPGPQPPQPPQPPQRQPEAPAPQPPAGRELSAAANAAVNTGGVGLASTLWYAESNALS
# [3] = target: T1, Biotinylated Prn-E (pertactin residues …); experiment: SPR; Biacore 3000, 25 °C; ~100 RU biotinylated Prn-E on a streptavidin chip; whole phage injected (BPP-1 ~1.2-3.7 × 10^-15 M, BPP-6 ~1-2 × 10^-16 M, BIP-1 8.3 × 10^-16 to 8.3 × 10^-15 M, BMP-1 e.g. 3.68 × 10^-15 M); multivalent; single-site model, global fit; conditions: one partner purified
Binder,Kd [1] [µM],kon [1] [M⁻¹ s⁻¹],stoichiometry N [2],Kd [3] [pM]
B1,3.47 ± 0.13,~10000,3 Mtd-P1 protomers per Prn-E,
B2,,,,6.89 ± 1.77

# Source: article PMC2408619, “Selective Ligand Recognition by a Diversity-Generating Retroelement Variable Protein” (PLoS Biology, 2008)
